Test results as given in PMC4817253.

What follows are substances tested on Nc1ncnc2c1ncn2[C@@H]1O[C@H](CO[P@](=O)(O)O[C@@H]2[C@H](O)[C@@H](CO[P@](=O)(O)O[C@@H]3[C@H](O)[C@@H](CO[P@](=O)(O)O[P@@](=O)(O)OP(=O)(O)O)O[C@H]3n3cnc4c(N)ncnc43)O[C@H]2n2cnc3c(N)ncnc32)[C@@H](O)[C@H]1O (assay: purified protein). Details: pH 7.2; 30.0 °C.
With “HKU5 NS4b (Pipistrellus bat coronavirus HKU5)” the Km was 1.3 ± 0.3 µM and the kcat/Km was 1.4e+06 M⁻¹ s⁻¹.
“MERS-CoV NS4b (Human betacoronavirus 2c EMC/2012)” was tested, and the Km was 2.6 ± 0.6 µM and the kcat/Km was 800000 M⁻¹ s⁻¹.
Substance “MHV NS2 (Murine hepatitis virus strain A59)” has a Km of 6.7 ± 1.6 µM.
SC2013 NS4b (BtVs-BetaCoV/SC2013) showed a Km of 2.9 ± 0.6 µM and a kcat/Km of 800000 M⁻¹ s⁻¹.
